We go through 1 molecule from patent US20240343815A1.

In test [1] the target is recombinant human IL4Rα-his protein (human) (UniProt P24394). As to the kind of experiment: SPR Biacore, mAb captured, IL4Rα-his analyte. (In general: In SPR one partner is held on a chip, and binding of the other changes the refractive index at the surface.)
Test [2] addresses human IL4Rα expressed on the surface of 293F-IL4Rα cells (human) (UniProt P24394). In words: cell-based ligand blocking FACS, 293F-IL4Rα cells, biotinylated IL4.
Test [3] has as its target human IL4Rα on HEK293T-IL4Rα-STAT6-STAT6LUC-LB2 cells (human) (UniProt P24394). In words: cell-based or functional assay.
The target in test [4] is recombinant human IL4Rα-his protein (human) (UniProt P24394). As to the kind of experiment: IL4-IL4Rα blocking ELISA, IL4Rα-his coated, biotinylated IL4. (ELISA stands for enzyme-linked immunosorbent assay.)
Test [5] has as its target human IL4Rα expressed on the surface of 293F-IL4Rα cells (human) (UniProt P24394). In words: flow cytometry on 293F-IL4Rα cells.
Test [6] concerns the target marmoset monkey IL4Rα-his protein (marmoset monkey). As to the kind of experiment: indirect ELISA, marmoset IL4Rα-his coated.
Test [7] addresses recombinant human IL4Rα-his protein (human) (UniProt P24394). As to the kind of experiment: capture ELISA, mAb captured by anti-human IgG, biotinylated IL4Rα-his.
Test [8] has as its target cynomolgus monkey IL4Rα-his protein (cynomolgus monkey). As to the kind of experiment: indirect ELISA, cynomolgus IL4Rα-his coated.
Test [9] deals with recombinant human IL4Rα-his protein (human) (UniProt P24394). In words: benchmark blocking ELISA, competitor benchmark coated (self-competition), biotinylated IL4Rα-his.
In test [10] the target is human IL4Rα on HEK293T-IL4Rα-STAT6-STAT6LUC-LB2 cells (human) (UniProt P24394). In words: cell-based or functional assay. The source holds these as a separate data set.
For test [11], the target named is recombinant human IL4Rα-his protein (human) (UniProt P24394). As to the kind of experiment: IL4-IL4Rα blocking ELISA, IL4Rα-his coated, biotinylated IL4. This is another data set of the same source.
Test [12] shares this target. As to the kind of experiment: SPR Biacore, mAb captured, IL4Rα-his analyte. This is another data set of the same source.
The target is the same in test [13]. In words: SPR Biacore, mAb captured, IL4Rα-his analyte. The source holds these as a separate data set.
For test [14], the target named is human IL4Rα expressed on the surface of 293F-IL4Rα cells (human) (UniProt P24394). In words: flow cytometry on 293F-IL4Rα cells. The source holds these as a separate data set. (In general: Flow cytometry measures light scatter and fluorescence of single cells or particles in a stream.)

Where two headings read alike, the source gives them in different places.

Sequence of cynomolgus monkey IL4Rα-his protein (cynomolgus monkey) (chain, as listed by the source): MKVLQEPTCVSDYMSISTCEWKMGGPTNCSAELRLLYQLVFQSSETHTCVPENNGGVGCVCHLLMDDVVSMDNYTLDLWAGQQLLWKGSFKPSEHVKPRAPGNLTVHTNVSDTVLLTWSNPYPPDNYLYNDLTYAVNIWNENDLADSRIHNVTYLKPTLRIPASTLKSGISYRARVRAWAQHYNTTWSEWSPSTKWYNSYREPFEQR
Sequence of marmoset monkey IL4Rα-his protein (marmoset monkey) (chain, as listed by the source limits assumed): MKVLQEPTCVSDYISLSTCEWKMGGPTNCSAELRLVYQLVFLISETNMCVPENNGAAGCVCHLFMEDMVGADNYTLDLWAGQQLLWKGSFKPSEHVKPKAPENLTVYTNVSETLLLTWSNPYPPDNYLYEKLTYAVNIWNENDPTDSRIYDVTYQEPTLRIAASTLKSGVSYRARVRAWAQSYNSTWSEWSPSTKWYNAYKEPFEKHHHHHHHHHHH

B1: anti-IL4Rα antibody benchmark (dupilumab) (antibody, INN chains, looked up, V domains shown)
VH: EVQLVESGGGLEQPGGSLRLSCAGSGFTFRDYAMTWVRQAPGKGLEWVSSISGSGGNTYYADSVKGRFTISRDNSKNTLYLQMNSLRAEDTAVYYCAKDRLSITIRPRYYGLDVWGQGTTVTVSS
VL: DIVMTQSPLSLPVTPGEPASISCRSSQSLLYSIGYNYLDWYLQKSGQSPQLLIYLGSNRASGVPDRFSGSGSGTDFTLKISRVEAEDVGFYYCMQALQTPYTFGQGTKLEIKR
With B1, the results for the Kd in test [1], in test [12] and in test [13] were 0.746 nM, 0.466 nM and 0.188 nM, respectively. The IC50 in test [2] stood at 0.42 nM; in test [4] it was 1.74 nM; in test [9], 0.19 nM; in [11], 2.06 nM. Besides, the Inhibition of IL4-induced STAT6 phosphorylation (IC50, nM) was 0.37 nM in test [3] and 0.7 nM in test [10]. For the same molecule, the results for the Inhibition of IL13-induced STAT6 phosphorylation (IC50, nM) in [3] and in [10] were 0.48 nM and 0.84 nM, respectively. In addition, the EC50 was found to be 0.46 nM in [5]; 1.72 nM in [6]; 0.05 nM in [7]; 0.67 nM in [8]; 0.4 nM in test [14]. The Dissociation (%) in test [13] was -2.64%. Further, the End (RU) in test [13] amounted to 70 RU. Besides, the Start (RU) in [13] came out at 71.9 RU. Also, the koff in test [13] was found to be 6.25e-05 s⁻¹. Besides, the kon in [13] worked out at 333000 M⁻¹ s⁻¹.

One may read the Kd as the concentration at which binding is half-saturated. Broadly, the IC50 is the concentration at which inhibition is half-maximal. Broadly, the EC50 is the concentration at which the effect is half-maximal. For orientation: koff means the first-order rate constant of dissociation. A word on the kon: it is the second-order rate constant of association.
